Results taken from US20260250362A1 (published 2026).
Like-named read-outs stand apart in the source and are kept apart here.

Legend:
[1] = molecular target: T1, recombinant ANDV Gn^H/Gc heterodimer (Andes virus (ANDV)); experiment: BLI
PUUV GnH/Gc [2] = experiment: BLI
PUUV GnH/Gc [3] = experiment: BLI; remark: listed apart in the source
PUUV = PUUV (Puumala virus (PUUV)); experiment: ELISA
[4] = molecular target: T1, recombinant ANDV Gn^H/Gc heterodimer; experiment: BLI; remark: listed apart in the source

B1: ADI-42898 Fab (Fab, V domains shown)
VH: QVQLVESGGGVVQPGRSLRLSCAASGFTFSSYAMHWVRQAPGKGLEWVAVTWFDVSKKDYADSVKGRFTISRDNSKNTLYLQMNSLRAEDTAVYYCARNLIRYSGSYFPVHGMDVWGQGTTVTVSS
VL: DIVMTQSPLSLPVTPGEPASISCRSSQSLLHTYGYNSLDWYLQRPGQSPQLLISLGSYRASGVPDRFSGSGSGTDFTLKISRVEAEDVGVYYCMQALHPFTFGGGTKVEIK
In the case of B1, the Kd [1] is reported as 19600 nM and the Kd (PUUV GnH/Gc [2]) is reported as 1.9 nM.

B2: ADI-42898 IgG (antibody, V domains shown)
VH: B1 VH
VL: B1 VL
For B2, the Kd (PUUV GnH/Gc [3]) was 1.5 nM.

B3: IgG (antibody, V domains shown)
VH: B1 VH
VL: B1 VL
Work on B3 yielded an EC50 (PUUV) of less than 0.1 nM.

B4: ADI-42898 (antibody, V domains shown)
VH: B1 VH
VL: B1 VL
In the case of B4, the Kd [4] is reported as 2.8 nM.
